Source: the nanobody polyreactivity screen of Harvey et al. (2022)

test: yeast display, Sf9 membrane polyspecificity reagent, FACS + sequencing; frameworks hold sequencing errors
Method in brief: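 Galactose induction of a Saccharomyces cerevisiae BJ5465 synthetic nanobody display library ran 36–48 hours. The cells were then stained for 1 hour at 4 °C with 10% biotinylated, detergent-solubilized Sf9 membrane reagent, pulled down on streptavidin microbeads and FACS-sorted into low and high (top ~1%) gates on expression and reagent-binding fluorescence. Labels for polyreactivity follow the gate of origin.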

Row | Sequence | polyreactivity (PSR sort gate)
1 | QVQLVESGGGLVQAGGSLRLSCAASGSTFASYAMGWYRQAPGKERELVAAITNGGSTNYADSVKGRFTISRDNAKNTVYLQMNSLKPEDTAVYYCAAYDGFPRRYDYWGQGTQVTVSS | low polyreactivity
2 | QVQLVESGGGLVQAGGSLRLSCAASGSTFAVNVMGWYRQAPGKERELVATITYRDGRTYYADSVKGRFTISRDNAKNTVYLQMNSLNPEDTAVYYCAADDEYKQEAEMDSWGQGTQVTVSS | low polyreactivity
3 | QVQLVESGGGLVQAGGSLRLSCAASGSTFAVYAMGWYRQAPGKERELVAVISRGANTNYADSVKGRFTISRDNAKNTVYLQMNSLKPEDTAVYYCAAPSYFTHRGRFDYWGQGTQVTVSS | low polyreactivity
4 | QVQLVESGGGLVQAGGSLRLSCAASGSTFAVYAMGWYRQEPGKERELVAVISRGANTNYADSVKGRFTISRDNAKNTVYLQMNSLIPEDTAVYYCAAPSFFTHRGRFDYWGQGTQVTVSS | low polyreactivity
5 | QVQLVESGGGLVQAGGSLRLSCAASGSTFAWNAMGWYRQAPGKERELVAAISWSGVRTYYADSVKGRFTISRDNAKNTVYLQMNSLKPEDTAVYYCAAPVYWAYTRSMDYWGQGTQVTVSS | high polyreactivity
6 | QVQLVESGGGLVQAGGSLRLSCAASGSTFAWYAMGWYRQAPGKERELVASIRWGGGSTYYADSVKGRFTISRDNAKNTVFLQMHSLKPEDTAVYYCAAYFGYTVGRYNYWGQGTQVTVSS | high polyreactivity
7 | QVQLVESGGGLVQAGGSLRLSCAASGSTFAWYAMGWYRQAPGKERELVAVITSTGRTYYADSVKGRFTISRDNAKNTVYLQMNSLKPEDSAVYYCAAQYGGGYLKPYRREYWGQGTQVTVSS | high polyreactivity
8 | QVQLVESGGGLVQAGGSLRLSCAASGSTFAWYAMGWYRQATGKETELVAVITRRGGSTYYADSVKGRFTISRDNAKNTVYLQMNSLKPEDTAVYYCAAEYQVSHWYRTASVYDYDSWGQGTQVTVSS | high polyreactivity
9 | QVQLVESGGGLVQAGGSLRLSCAASGSTFAWYTMGWYRQAPGKERELVARISGSVGSTYYADSVKGRFTISRDNAKNTVYLQMNSLKPEDTAVYYCAAVYDEDQYDYWGQGTQVTVSS | low polyreactivity
10 | QVQLVESGGGLVQAGGSLRLSCAASGSTFAYNAMGGYRKAPGKERELVATISTDGSTYADSVKGRFTISRDNAKNTVYLQMNSLKPEDTAVYYCNADGHPSDPGYDYWGQGTHVTVSS | low polyreactivity
11 | QVQLVESGGGLVQAGGSLRLSCAASGSTFAYNAMGWYRQAPGKERELVAAISGSTTRTYYADSVKGRFTISRDNAKNTVYLQMNSLKPEDTAVYYCAAGIPFRQRLRRYYYWGQGTQVTVSS | high polyreactivity
12 | QVQLVESGGGLVQAGGSLRLSCAASGSTFAYNAMGWYRQAPGKERELVASISQSGVSTYYADSVKGRFTISRDNAKNTVYLQMNSLKPEDTAVYYCNTEIYYRSYEDDYWGQGSQVTVSS | low polyreactivity
13 | QVQLVESGGGLVQAGGSLRLSCAASGSTFAYNAMGWYRQAPGKERELVATITSGGSTSYADSVKGRFTISRDNAKNTVYLQMNSLKPEDTAVYYCAARKVTKSTYNYWGQGTQVTVSS | low polyreactivity
14 | QVQLVESGGGLVQAGGSLRLSCAASGSTFAYNDMGWYRQAPGKERELVADIRSGGNTNYADSVKGRFTISRDNAKNTVYLHMNSLKPEATAVYYCATDGYRIDVYHPDYRYDYWGQGTQVTVSS | low polyreactivity
15 | QVQLVESGGGLVQAGGSLRLSCAASGSTFAYNDMGWYRQAPGKERELVADIRSGGNTNYADSVKGRFTISRDNAKNTVYLQMNSLKPEDTAVYYCASDGYRIDVYHPDYRYDYWGQGTQVTVSS | low polyreactivity
16 | QVQLVESGGGLVQAGGSLRLSCAASGSTFAYNTMGWYRKAPGKERELVAAITQLGGSTYADSVKGRFTISRDNAKNTVYLQINSLKPEENAVYYCAADGYTYKFDYWGQGTQVTVSS | low polyreactivity
17 | QVQLVESGGGLVQAGGSLRLSCAASGSTFAYYAMGWYRQAPGKERELVARIRSSGVSTYYADSVKGRFTISRDNAKNTVYLQMNSLKPEDTAVYYCNKAYSGVRYDSWGQGTQVTVSS | low polyreactivity
18 | QVQLVESGGGLVQAGGSLRLSCAASGSTFAYYTMGWYRQAPGKERELVAAISAGGGSTYYADSVKGRFTISRDNAKNTVYLQMNSLKPEDTAVYYCAVRVLIHTNTRRLDYWGQGTQVTVSS | high polyreactivity
19 | QVQLVESGGGLVQAGGSLRLSCAASGSTFCYYGMGWYRQAPGTERELVAAISWSGGTFYADSVKGRFTISRDNAKNTVYLQMNSLKPEDTAVYYCATDYGGPITGYEYWGQGTQVTVSS | low polyreactivity
20 | QVQLVESGGGLVQAGGSLRLSCAASGSTFDAYAMGWYRPAPGTERELVAGISTSGGSTYYADSVKGRFTISRDNAKYTVVLQMNSMIPEVYAVYYCGAGVFRYVDRYGDMEYWGQGTQVTVSS | low polyreactivity
21 | QVQLVESGGGLVQAGGSLRLSCAASGSTFDAYAMGWYRQAPGKERELVAAITWSGGSTYYADSVKGRFTISRDNAKNTVYLQMNSLKPEDTAVYYCAAYYLIFYFEFDYWGQGTQVTVSS | low polyreactivity
22 | QVQLVESGGGLVQAGGSLRLSCAASGSTFDAYAMGWYRQAPGKERQLVAAITHGGSTNYADSVKGRFTISRDNAKNTVYLQMNSLKPEDTAVYYCNAQHRTVWGIFGRFNYWGQATQVTVSS | low polyreactivity

Row | Sequence | polyreactivity (PSR sort gate)
23 | QVQLVESGGGLVQAGGSLRLSCAASGSTFDDNAMGWYRQAPGKERELVAAINGDGITTYADSVKGRFTISRDNAKNTVYLQMNSMKPEDTAVYYCNTVGIGAWGYSYPDEDNYWGQGTQVTVSS | low polyreactivity
24 | QVQLVESGGGLVQAGGSLRLSCAASGSTFDDNGMGWYRKAPGKERELVAGINSAGSTYYADSVKGRFTISRDNAKNTVYLQMNSLKPEDTAVYYCARRFLLKDRTKRAYGSWGQGTQVTVSS | low polyreactivity
25 | QVQLVESGGGLVQAGGSLRLSCAASGSTFDDYAMGWYRQAPGKERELVAAINSDCGGTYYADSVKGRFTISRDNAKNTVYLQMNSLKPEDTAVYYCNVEYEDYYAQRYGYDYWGQGTQVTVSS | low polyreactivity
26 | QVQLVESGGGLVQAGGSLRLSCAASGSTFDDYVMGWYRQAPGKERELVAGINSRGTSTDYADSVKGRFTISRDNAKNTVYLQLNSLKPEDTAVYYCAADDSHGYDYWGQGTQVTVSS | low polyreactivity
27 | QVQLVESGGGLVQAGGSLRLSCAASGSTFDDYVMGWYRQAPGKERELVAGINSRGTSTDYAGSVKGRFTISRDNAKNTVYLQMNSLKPEDTAVYYCAADDSHGYDYWGQGTQVTVSS | low polyreactivity
28 | QVQLVESGGGLVQAGGSLRLSCAASGSTFDENAMAWYRQAPGKEWELVAVISDSGGSTYYADSVKGRFTISRDNAKNTVYLQMNSLKPEDTAVYYCAADQSSLDYGNDYWGQGTQVTVSS | low polyreactivity
29 | QVQLVESGGGLVQAGGSLRLSCAASGSTFDFNAMGWYRQAPGKERELVAAITSGGGSTYYADSLKGRFTISRDNAKNTVYLQMNSLKPEDTAVYYCAADDIVLRYDYWGQGTQVTVSS | low polyreactivity
30 | QVQLVESGGGLVQAGGSLRLSCAASGSTFDFNAMGWYRQAPGKERELVAAITYSGGSTYYADSVKGRFTISRDNAKNTVYLQMNSLKPVDTAVYYCAAEDVYPGSIDMDYWGQGTQVTVSS | low polyreactivity
31 | QVQLVESGGGLVQAGGSLRLSCAASGSTFDFYAMGWYRQAPGKERELVAAITYSGGSTYYADSVKGRFTISRDNAKNTVYLQMNSLKPEDTAVYYCAAARVWQYSDFFLYYYWGQGTQVTVSS | low polyreactivity
32 | QVQLVESGGGLVQAGGSLRLSCAASGSTFDGNAMGWYRQAPGKERELVAAITRAGRTSYADSVKGRFTISRDNAKNTVYLQMNSLKPEDTAVYYCAKGGYDYWGQGTQVTVSS | low polyreactivity
33 | QVQLVESGGGLVQAGGSLRLSCAASGSTFDGNAMGWYRQAPGKERELVAAITYTTSSTYYADSVKGRFTISRDNAKNTVYLQMNSLKPEDTAVYYCAAGVNYRSPGVSKGRDYWGQGTQVTVSS | low polyreactivity
34 | QVQLVESGGGLVQAGGSLRLSCAASGSTFDGNAMGWYRQAPGKERELVATITRRGGSTNYADSVKGRFTISRDNAKNTVYLQMNSLKPEDTAVYYCATADAHSSAAGEDYWGQGTQVTVSS | low polyreactivity
35 | QVQLVESGGGLVQAGGSLRLSCAASGSTFDGNAMGWYRQAPGKESELVAAISWSGGSTYYADSVKGRFTISRDNAKNSVYLQLNSLKPEDTAVYYCNAVHYPYQHMGSWGQGTQVSVSS | low polyreactivity
36 | QVQLVESGGGLVQAGGSLRLSCAASGSTFDGNAMGWYRQAPGTERELVATINSDDSKNYADSVKGRFTISRDNAKNTVYLQMNSLKPEDTAVYYCAARLYVTPILSYVERYTNDYWGQGTQVTVSS | low polyreactivity
37 | QVQLVESGGGLVQAGGSLRLSCAASGSTFDGYALGWYRQAPGKERELVAAISKNGGRTYYADSVKGRFTISRDNAKNTVYLQMNSLKPEDTAVYYCAKDIIKYDYDYWGQGTQVTVSS | low polyreactivity
38 | QVQLVESGGGLVQAGGSLRLSCAASGSTFDGYTMGWYRQAPGKERELVAAISWRGTSTYYADSVKGRFTISRYIAKNTVYLQMNSLKPEDTAVYYCAADAYSGYDYWGQGTQVTVSS | low polyreactivity
39 | QVQLVESGGGLVQAGGSLRLSCAASGSTFDGYVMGWYRQAPGKEREFVAAISWSGGSTYYADSVKGRFTISRDNAKNTVYLQMNSLKPEDTAVYYCAARVRRQHGYWGQGTQVTVSS | high polyreactivity
40 | QVQLVESGGGLVQAGGSLRLSCAASGSTFDINAMGWYRQAPGKEWELVAAITWSGDSTYYADSVKGRFTSSRDYAKHTVSLQMNSLKPEDTAVYYCAADYPYSYYEYSSYYYWGQGTQVTVSS | low polyreactivity
41 | QVQLVESGGGLVQAGGSLRLSCAASGSTFDIYPMGWYRQAPGKERELVAAISWSGGRTYYADSVKGRFTISRDNAKNTVYLQMNSLKPEDTAVYYCAAVNKSGTYVEYDYWGQGTQVTVSS | low polyreactivity
42 | QVQLVESGGGLVQAGGSLRLSCAASGSTFDKNAMGWYRQEPGKERELVAAINNGGGTTYYADSVKGRFTISRDNAKNTVYLQMNSLKPEDTAVYYCAAVGKAYWSDYQYRYYYWGQGTQVTVSS | low polyreactivity
43 | QVQLVESGGGLVQAGGSLRLSCAASGSTFDKYAMGWYRQAPGKDRELVAAITWGGGSTYYADSVKGRFTISRDNAKNTVYLQMNSLKPEDTAVYYCAAEQGSSVLYDSWGQGTQVTVSS | low polyreactivity
